The record followed here is article PMC12441120, “Gephyrin filaments represent the molecular basis of inhibitory postsynaptic densities” (Nature Communications, 2025).

Data set [1] has as its target full-length wild-type gephyrin (Geph^WT) (human) (UniProt Q9NQX3). As to the kind of experiment: SEC; analytical SEC (Superdex 6 increase or Superose 6 increase 10/300 GL) in grid buffer (25 mM Tris pH 7.5, 250 mM NaCl, 25 mM Arg/Glu, 5 mM β-mercaptoethanol, 1.5% sucrose); Geph^WT with a 3-fold excess of GlyR-loop; no filaments seen in SEC. In general terms: SEC sorts molecules by how far they enter the pores of the column.

Data set [2] deals with the molecule itself. As to the kind of experiment: cell-based or functional assay.

As to “full-length wild-type gephyrin (Geph^WT) (from UniProt Q9NQX3 1-736) (natural protein)”, the stoichiometry N in data set [1] amounted to 3.

B1: isolated gephyrin E-domain, wild type (GephE^WT, residues 327–736) (domain or fragment, human, UniProt Q9NQX3 327-736, looked up)
chain: DKAFITVLEMTPVLGTEIINYRDGMGRVLAQDVYAKDNLPPFPASVKDGYAVRAADGPGDRFIIGESQAGEQPTQTVMPGQVMRVTTGAPIPCGADAVVQVEDTELIRESDDGTEELEVRILVQARPGQDIRPIGHDIKRGECVLAKGTHMGPSEIGLLATVGVTEVEVNKFPVVAVMSTGNELLNPEDDLLPGKIRDSNRSTLLATIQEHGYPTINLGIVGDNPDDLLNALNEGISRADVIITSGGVSMGEKDYLKQVLDIDLHAQIHFGRVFMKPGLPTTFATLDIDGVRKIIFALPGNPVSAVVTCNLFVVPALRKMQGILDPRPTIIKARLSCDVKLDPRPEYHRCILTWHHQEPLPWAQSTGNQMSSRLMSMRSANGLLMLPPKTEQYVELHKGEVVDVMVIGRL
B1: the “sedimentation assay of in vitro phase separation (LLPS) with GlyR-LD: GephE in the pellet fraction against the sample without GlyR-LD” value in data set [2] was roughly 10 fold.

Usually stoichiometry N stands for the number of molecules, sites or subunits per partner or assembly.
